Here are results for 167 variants from the RNAGym collection of RNA variant scans (doi:10.7554/elife.80360).

To fix the notation:
B1: CPEB3 Ribozyme (parent)
chain: GGGGGCCACAGCAGAAGCGUUCACGUCGCGGCCCCUGUCAGAUUCUGGUGAAUCUGCGAAUUCUGCUGU

In this series the parent is B1. Nature of the series: self-cleavage, relative activity (ratio to wild type); higher = more cleavage; co-transcriptional.
As for G28C U61A, the self-cleavage was found to be 0.256.

In the case of G28C U61G, the self-cleavage turned out to be 0.229.

For the variant G28A U64G, the self-cleavage was determined as 0.205.

Take G28A U64C: the self-cleavage stood at 0.151.

G28U U44C: the self-cleavage came out at 0.181.

As for G28U U44A, the self-cleavage was 0.135.

As for G28C A42C, the self-cleavage was found to be 0.183.

With G28C A42G, the self-cleavage was 0.128.

Turning to G28U C34G, the self-cleavage worked out at 0.219.

Turning to G28U C34U, the self-cleavage was found to be 0.204.

On to G28A G31A, for which the self-cleavage worked out at 0.153.

In the case of G28A G31U, the self-cleavage was 0.197.

For the variant C27U U43C, the self-cleavage was 0.285.

Consider G28C U62G, for which the self-cleavage was determined as 0.209.

Regarding G28U G65A, the self-cleavage was determined as 0.146.

On to G28U G65U, for which the self-cleavage amounted to 0.2.

In the case of G28C G50A, the self-cleavage was determined as 0.166.

On to G28C G50U, for which the self-cleavage stood at 0.143.

In the case of G28C G50C, the self-cleavage came to 0.168.

In the case of G28C U69C, the self-cleavage was 0.276.

As for G28C U69G, the self-cleavage was 0.301.

With G28C C33G, the self-cleavage stood at 0.166.

As to G28A G30U, the self-cleavage was found to be 0.155.

With G28A G30A, the self-cleavage came out at 0.156.

For the variant G28U U69A, the self-cleavage is 0.183.

For the variant G28U U69C, the self-cleavage turned out to be 0.235.

As for G28A C35G, the self-cleavage turned out to be 0.188.

Consider G28C C35G, for which the self-cleavage worked out at 0.17.

Take G28C U49G: the self-cleavage is 0.182.

Consider G28C U49A, for which the self-cleavage was 0.126.

Turning to G28A U55G, the self-cleavage is 0.167.

Regarding G28A U55A, the self-cleavage was found to be 0.169.

With G28C A52C, the self-cleavage came to 0.198.

Regarding G28C A52G, the self-cleavage is 0.174.

G28U A40U: the self-cleavage is 0.213.

With G28U U43G, the self-cleavage came out at 0.0809.

With G28U U43A, the self-cleavage was determined as 0.135.

As to G28A C39G, the self-cleavage was 0.157.

For G28U C32U, the self-cleavage came to 0.226.

As to G28U C32G, the self-cleavage was found to be 0.217.

Regarding C27U C29U, the self-cleavage was 0.189.

As to G28U U61A, the self-cleavage is 0.204.

Consider G28A A40C, for which the self-cleavage came to 0.15.

For the variant G28U G58U, the self-cleavage was 0.182.

Regarding C27U U61A, the self-cleavage is 0.22.

For C27U U61G, the self-cleavage was found to be 0.277.

As for G28A G50C, the self-cleavage came out at 0.226.

On to G28A G47A, for which the self-cleavage amounted to 0.22.

As to G28U G37A, the self-cleavage was determined as 0.206.

Take G28C G68C: the self-cleavage came to 0.147.

For G28U U62C, the self-cleavage turned out to be 0.127.

On to G28C C39A, for which the self-cleavage is 0.156.

In the case of G28C C39U, the self-cleavage turned out to be 0.207.

Turning to G28U U64C, the self-cleavage turned out to be 0.219.

With G28C C45A, the self-cleavage came out at 0.135.

In the case of G28C C45U, the self-cleavage was 0.194.

On to G28C C54A, for which the self-cleavage was found to be 0.151.

G28C G30U: the self-cleavage is 0.2.

For the variant G28A U49A, the self-cleavage is 0.181.

Turning to G28U C57G, the self-cleavage turned out to be 0.161.

For the variant G28U C57A, the self-cleavage is 0.188.

With G28A G41A, the self-cleavage came to 0.178.

G28A G41U: the self-cleavage was 0.148.

In the case of C27U U38G, the self-cleavage was determined as 0.17.

In the case of C27U C34G, the self-cleavage was found to be 0.24.

C27U C35G: the self-cleavage was found to be 0.14.

With C27U G56U, the self-cleavage came out at 0.197.

As for G28C G58U, the self-cleavage is 0.187.

With G28C G58A, the self-cleavage turned out to be 0.156.

Turning to C27U C39U, the self-cleavage came to 0.254.

In the case of G28U A52G, the self-cleavage stood at 0.18.

Take G28U U55G: the self-cleavage turned out to be 0.168.

In the case of C27U U64A, the self-cleavage came out at 0.161.

G28A C63U: the self-cleavage was found to be 0.195.

Consider G28U G68A, for which the self-cleavage came out at 0.195.

For the variant G28U G68U, the self-cleavage worked out at 0.208.

G28C U55A: the self-cleavage is 0.241.

For G28U C33U, the self-cleavage amounted to 0.155.

Turning to G28U U53C, the self-cleavage was determined as 0.157.

As to C27U G37A, the self-cleavage was 0.187.

Regarding G28A C54A, the self-cleavage is 0.175.

For G28U A59C, the self-cleavage is 0.251.

Take G28U U36A: the self-cleavage was 0.168.

Take G28U U36G: the self-cleavage amounted to 0.106.

Regarding G28A G65U, the self-cleavage is 0.172.

As to G28A G65A, the self-cleavage turned out to be 0.152.

On to G28C U64C, for which the self-cleavage is 0.194.

For the variant G28U A51U, the self-cleavage was 0.182.

In the case of G28A A52U, the self-cleavage worked out at 0.276.

Consider G28A A52C, for which the self-cleavage was determined as 0.182.

Turning to C27U C57U, the self-cleavage is 0.204.

As for G28U C29G, the self-cleavage turned out to be 0.129.

As for G28U G31A, the self-cleavage was 0.24.

Consider G28C U67A, for which the self-cleavage amounted to 0.182.

C29A A59C: the self-cleavage turned out to be 0.274.

C29A A59U: the self-cleavage worked out at 0.283.

Consider G28A U62G, for which the self-cleavage was found to be 0.208.

As to G28U G56A, the self-cleavage came out at 0.14.

For the variant G28U G56U, the self-cleavage was found to be 0.137.

Regarding G28U G56C, the self-cleavage came to 0.163.

In the case of C27U C63A, the self-cleavage was 0.165.

With C27U C63G, the self-cleavage amounted to 0.263.

Regarding G28C U46A, the self-cleavage was 0.173.

Take G28C U46C: the self-cleavage was 0.131.

Take G28C U46G: the self-cleavage was found to be 0.118.

As for G28U C45G, the self-cleavage came out at 0.162.

G28U C35U: the self-cleavage was found to be 0.192.

Take C27U G50C: the self-cleavage was 0.272.

Take C27U U53G: the self-cleavage came out at 0.18.

On to C27U U53A, for which the self-cleavage worked out at 0.25.

With G28U C54U, the self-cleavage is 0.178.

With G28C G48C, the self-cleavage stood at 0.135.

With G28U A42C, the self-cleavage stood at 0.153.

Take C27U G28A: the self-cleavage was determined as 0.126.

On to C27U U69A, for which the self-cleavage was 0.502.

Take C27U U55G: the self-cleavage is 0.188.

With G28A U61G, the self-cleavage stood at 0.214.

In the case of G28A G48C, the self-cleavage was 0.213.

For G28A G48A, the self-cleavage turned out to be 0.19.

On to G28A G48U, for which the self-cleavage came to 0.19.

Regarding G28U C39U, the self-cleavage is 0.171.

In the case of G28A A51G, the self-cleavage was determined as 0.229.

Take G28C U38A: the self-cleavage was 0.222.

Turning to G28C U38G, the self-cleavage is 0.133.

Regarding C29A A60C, the self-cleavage was 0.307.

In the case of C29A A60G, the self-cleavage was determined as 0.334.

As for C27U G41A, the self-cleavage worked out at 0.147.

Turning to G28A U36A, the self-cleavage amounted to 0.154.

Regarding G28A G68A, the self-cleavage came out at 0.294.

As for C27U G31C, the self-cleavage amounted to 0.143.

Regarding G28A A59C, the self-cleavage was 0.185.

Regarding G28A A59G, the self-cleavage turned out to be 0.17.

As for C27U G48U, the self-cleavage is 0.504.

For the variant C27U G48A, the self-cleavage is 0.431.

For C27U C45U, the self-cleavage worked out at 0.35.

As to C27U C45A, the self-cleavage stood at 0.216.

In the case of C29A A51C, the self-cleavage was determined as 0.534.

On to G28U G50U, for which the self-cleavage is 0.165.

For the variant G28C G65U, the self-cleavage turned out to be 0.16.

Consider C27U U67G, for which the self-cleavage is 0.4.

Turning to G28C C63A, the self-cleavage amounted to 0.186.

Consider G28C C63G, for which the self-cleavage amounted to 0.198.

Take G28U G48C: the self-cleavage is 0.169.

For the variant G28U G48U, the self-cleavage is 0.198.

On to C27U U62C, for which the self-cleavage is 0.189.

As to C27U U62G, the self-cleavage worked out at 0.276.

As to G28A C34G, the self-cleavage was found to be 0.139.

Regarding G28A C34U, the self-cleavage was 0.244.

Consider C27U G47A, for which the self-cleavage stood at 0.459.

As for G28C U44G, the self-cleavage came out at 0.191.

Regarding G28A U53A, the self-cleavage was determined as 0.198.

With C27U U36C, the self-cleavage is 0.201.

Turning to G28C A60C, the self-cleavage stood at 0.217.

Turning to C27U G68C, the self-cleavage stood at 0.385.

Consider G28A U38A, for which the self-cleavage was determined as 0.176.

For the variant G28C G56A, the self-cleavage was 0.181.

In the case of G28C G56C, the self-cleavage came out at 0.192.

As to G28U A60U, the self-cleavage amounted to 0.138.

C27U U49A: the self-cleavage was 0.442.

On to C27U U49C, for which the self-cleavage was found to be 0.301.

As for G28A, the self-cleavage came out at 0.213.

For G28C, the self-cleavage amounted to 0.173.

Turning to G28U, the self-cleavage stood at 0.178.

In the case of G28A C45U, the self-cleavage was 0.202.

In the case of G28A C66U, the self-cleavage amounted to 0.165.

Consider G28A C66A, for which the self-cleavage was found to be 0.189.

For G28C C34A, the self-cleavage was 0.127.
